From PMC9361823

Columns and labels:
[1] = target: α3β3-type oxygenase component of cumene dioxygenase (CumDO-O), wild type (Pseudomonas fluorescens IP01) (UniProt Q51743)
[2] = target: CumDO-O α1K117A α1K141A (Pseudomonas fluorescens IP01) (UniProt Q51743)
[3] = target: CumDO-O β1R65A β2W100A (Pseudomonas fluorescens IP01) (UniProt Q51743)
[4] = target: CumDO-O α1K141A β2W100A (Pseudomonas fluorescens IP01) (UniProt Q51743)
[5] = target: CumDO-O α1K117A β1R65A (Pseudomonas fluorescens IP01) (UniProt Q51743)
[6] = target: CumDO-O α1K117A β2W100A (Pseudomonas fluorescens IP01) (UniProt Q51743)
[7] = target: CumDO-O α1K141A β1R65A (Pseudomonas fluorescens IP01) (UniProt Q51743)
[8] = target: CumDO-O β1R65A (Pseudomonas fluorescens IP01) (UniProt Q51743)
[9] = target: CumDO-O α1K117A (Pseudomonas fluorescens IP01) (UniProt Q51743)

Chain of Rieske-type ferredoxin of cumene dioxygenase (CumDO-F) (Q51746 entry or part of it): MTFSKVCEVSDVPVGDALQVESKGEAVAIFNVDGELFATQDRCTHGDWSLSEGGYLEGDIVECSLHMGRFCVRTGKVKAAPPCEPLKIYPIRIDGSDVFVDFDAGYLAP

reduction efficiency of the Rieske cluster of CumDO-O by CumDO-F (initial rate of decrease of A457; purified CumDO-R, CumDO-F, CumDO-O and NADH) [1]: 100%
reduction efficiency by CumDO-F relative to WT CumDO-O (A457) [2]: < 20%
reduction efficiency by CumDO-F relative to WT CumDO-O (A457) [3]: < 20%
reduction efficiency by CumDO-F relative to WT CumDO-O (A457) [4]: 69%
reduction efficiency by CumDO-F relative to WT CumDO-O (A457) [5]: < 20%
reduction efficiency by CumDO-F relative to WT CumDO-O (A457) [6]: < 20%
reduction efficiency by CumDO-F relative to WT CumDO-O (A457) [7]: < 20%
reduction efficiency by CumDO-F relative to WT CumDO-O (A457) [8]: 46%
reduction efficiency by CumDO-F relative to WT CumDO-O (A457) [9]: 21%
Substance: Rieske-type ferredoxin of cumene dioxygenase (CumDO-F) (from UniProt Q51746 1-109) (natural protein)
